Measured values reported in patent US20080227698A1, “OLIGOPEPTIDES FOR TREATMENT OF OSTEOPOROSIS AND OTHER BONE DISEASES AND METHODS THEREOF” (Washington University, priority 2005, published 2008).

Assays:
cytosolic β-catenin = assay: Cytosolic β-catenin level by western blotting in LRP6-transduced HT1080 cells; format: cell-based, human; conditions: 0.5 to 5 nM Mesd, 2 hours at 37° C. (data not shown)
Procedure: […] After washing in ice-cold PBS, cells were collected and homogenized in a glass Dounce homogenizer in buffer consisting of 100 mM Tris-HCl pH 7.4, 140 mM NaCl, 2 mM DTT, 2 mM PMSF, and 1X Complete™ protease inhibitors (500 μl/well). The homogenate was centrifuged for 10 minutes at 500 g, and the supernatant was further centrifuged at 100,000 g at 4° C. for 90 minutes. The resulting supernatant was designated the cytosolic fraction. The β-catenin levels were then examined by western blotting using β-catenin-specific antibody from Cell Signaling Technology. The immunoreactive proteins were detected using the ECL system. Films showing immunoreactive bands were scanned with a Kodak Digital Science DC120 Zoom Digital Camera and band intensities were analyzed with Kodak Digital Science 1D Image Analysis Software.
β-catenin is a key molecule in the Wnt/β-catenin signaling pathway. A cytosolic pool of β-catenin interacts with DNA-binding proteins and participates in Wnt signal transduction (Hinck, L., J. Cell Biol. 125, 1327-13401994; Gottardi, C. J., J. Cell Biol. 153: 1049-1060, 2001; Klingelhofer, J., Oncogene 22, 1181-1188, 2003). To determine whether Mesd binding to cell surface LRP6 directly regulates Wnt signaling, the effects of Mesd binding on cytosolic P-catenin levels in HT1080-LRP6 cells were studied. […]

LRP5 = LRP5 (Homo sapiens, UniProt O75197); assay: ^125I-DKK1 binding to LRP5, competition by Mesd or oligopeptide (FIG. 10B)
Procedure: In order to investigate the binding of Mesd polypeptide and an Mesd oligopeptide to either LRP5 or LRP6, binding assays were performed using ^125I-Mesd or ^125I-DKK1 (FIG. 10).

LRP6 [1] = target: T1, LRP6 (Homo sapiens, UniProt O75581); assay: LRP6 folding: western blot of ER and mature LRP6 forms in HEK293 cells with Mesd coexpression; format: cell-based; parameters: plasmid pCS-Myc-hLRP6 containing the full-length human LRP6 cDNA; HA; expressed in transfected cells; conditions: HEK293 cells transiently transfected with LRP6 cDNA and Mesd or MesdΔC cDNA
Procedure: To examine the expression of the LDLR family members, cells cultured in six-well plates were lysed with 0.5 ml lysis buffer (phosphate-buffered saline containing 1% Triton X-100 and 1 mM PMSF) at 4° C. for 30 minutes. Equal quantities of protein were subjected to SDS-PAGE under non-reducing conditions. Following transfer to Immobilon-P membrane, successive incubations with primary antibody and horseradish peroxidase-conjugated secondary antibody were carried out for 60 minutes at room temperature. The immunoreactive proteins were then detected using the ECL system.
To examine the role of this C-terminal region of Mesd on receptor folding, a Mesd mutant (Mesd_C), which lacks the C-terminal region (amino acids 156-191) but retains the endoplasmic reticulum retention signal (REDL) was generated (FIG. 3A). Next, a potential role for MesdΔC on LRP6 folding was evaluated. HEK293 cells were transiently transfected with cDNA for the LRP6 with cotransfection of control vector, or cDNAs for Mesd or MesdΔC. The steady-state levels of LRP6 were analyzed by western blotting with the anti-MYC antibody (FIG. 5A). […] In FIG. 5A, HEK293 cells were transiently transfected with the indicated cDNAs. Cell lysates were analyzed by SDS-PAGE under reducing conditions and western blotted with anti-FLAG or anti-HA antibodies as indicated.

LRP6 [2] = target: T1, LRP6; assay: ^125I-DKK1 binding to LRP6-transduced HT1080 cells; parameters: plasmid pCS-Myc-hLRP6 containing the full-length human LRP6 cDNA; HA; expressed in transfected cells; host or cells: human HT1080 cells, stably transduced (pLNCX2 retroviral vector); conditions: 500 nM competitor, ^125I-DKK1 5 nM, 3 hours at 4° C.
Procedure: Cells (2×10^5) were seeded into 12-well dishes 1 day prior to assay. Ligand-binding buffer (minimal Eagle's medium containing 0.6% BSA with a different concentration of radioligand, 0.6 ml/well) was added to cell monolayers, in the absence or the presence of 500 nM unlabeled RAP or 500 nM unlabeled Mesd, followed with incubation for 0-4 hours at 4° C. Thereafter, overlying buffer containing unbound ligand was removed, and cell monolayers were washed and lysed in low-SDS lysis buffer (62.5 mM Tris-HCl pH 6.8, 0.2% SDS, 10% v/glycerol) and counted.
RAP is a receptor antagonist for members of the LDLR family, and is able to inhibit the binding of most known ligands of the LDLR family members. […] In these experiments, Serum-free conditioned medium was harvested from HEK293 cells transiently transfected with cDNA for human Myc-DKK1 and allowed to bind to LRP6-transduced HT1080 cells (B,C) and control cells (A) in the absence (A,B) or presence (C) of 1 μM Mesd. Cell-surface-bound Myc-tagged DKK proteins were fixed and detected by immunofluorescence staining with anti-Myc antibody. […] Binding of 125I-DKK1 (5 nM) to LRP6-transduced HT1080 cells or the control cells was carried out for 3 hours at 4° C. in the absence (total) or presence of 500 nM RAP or 500 nM Mesd. […] LRP6-mediated 125I-Mesd (5 nM) degradation was carried out for 4 hours at 37° C. in the absence or presence of 500 nM RAP or 500 nM Mesd. Values are the means of triple determinations with the s.d. indicated by error bars. Bar, 10 μm.

T1 sequence (O75581 20-1613): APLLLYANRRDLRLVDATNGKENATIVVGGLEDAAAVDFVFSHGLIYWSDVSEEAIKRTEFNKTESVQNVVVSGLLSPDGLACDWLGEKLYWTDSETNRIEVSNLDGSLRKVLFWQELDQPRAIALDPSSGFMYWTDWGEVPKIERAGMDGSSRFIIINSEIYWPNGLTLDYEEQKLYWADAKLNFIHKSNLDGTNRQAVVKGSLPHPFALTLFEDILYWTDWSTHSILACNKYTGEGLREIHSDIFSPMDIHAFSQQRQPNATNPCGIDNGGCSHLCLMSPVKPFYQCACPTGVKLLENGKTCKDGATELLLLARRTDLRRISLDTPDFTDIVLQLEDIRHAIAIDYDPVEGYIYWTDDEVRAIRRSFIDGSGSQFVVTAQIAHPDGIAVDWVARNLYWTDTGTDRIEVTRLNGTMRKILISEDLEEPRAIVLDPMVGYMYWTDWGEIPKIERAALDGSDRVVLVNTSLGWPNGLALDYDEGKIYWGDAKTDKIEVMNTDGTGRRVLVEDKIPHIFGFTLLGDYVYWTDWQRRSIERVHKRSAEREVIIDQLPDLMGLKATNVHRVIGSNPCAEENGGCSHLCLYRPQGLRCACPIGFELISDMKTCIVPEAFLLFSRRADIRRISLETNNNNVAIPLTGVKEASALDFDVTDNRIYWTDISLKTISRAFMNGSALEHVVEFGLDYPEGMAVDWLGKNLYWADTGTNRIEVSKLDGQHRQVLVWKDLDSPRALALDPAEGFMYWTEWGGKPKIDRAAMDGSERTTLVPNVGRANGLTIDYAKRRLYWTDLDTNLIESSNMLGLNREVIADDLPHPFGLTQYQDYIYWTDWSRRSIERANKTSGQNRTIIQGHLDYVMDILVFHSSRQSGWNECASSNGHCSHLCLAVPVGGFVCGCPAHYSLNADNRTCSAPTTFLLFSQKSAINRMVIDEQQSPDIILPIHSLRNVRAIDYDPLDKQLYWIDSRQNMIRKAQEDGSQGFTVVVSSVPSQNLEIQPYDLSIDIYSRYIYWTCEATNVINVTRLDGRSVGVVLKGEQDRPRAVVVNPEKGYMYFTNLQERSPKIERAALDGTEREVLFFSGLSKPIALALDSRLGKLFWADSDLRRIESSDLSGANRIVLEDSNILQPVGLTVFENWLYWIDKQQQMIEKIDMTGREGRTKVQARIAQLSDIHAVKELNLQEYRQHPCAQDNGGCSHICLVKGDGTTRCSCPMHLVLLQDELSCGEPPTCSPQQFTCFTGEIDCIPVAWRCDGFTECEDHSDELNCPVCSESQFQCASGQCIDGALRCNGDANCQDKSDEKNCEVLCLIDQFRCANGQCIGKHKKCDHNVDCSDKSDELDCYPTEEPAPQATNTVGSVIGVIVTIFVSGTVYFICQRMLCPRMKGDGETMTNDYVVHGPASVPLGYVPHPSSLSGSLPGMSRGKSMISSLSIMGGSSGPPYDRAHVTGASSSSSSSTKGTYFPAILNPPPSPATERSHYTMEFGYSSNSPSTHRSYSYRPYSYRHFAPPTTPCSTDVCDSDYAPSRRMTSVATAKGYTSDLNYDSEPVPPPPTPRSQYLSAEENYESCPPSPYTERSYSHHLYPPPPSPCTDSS
Chain of LRP5 (O75197 32-1615): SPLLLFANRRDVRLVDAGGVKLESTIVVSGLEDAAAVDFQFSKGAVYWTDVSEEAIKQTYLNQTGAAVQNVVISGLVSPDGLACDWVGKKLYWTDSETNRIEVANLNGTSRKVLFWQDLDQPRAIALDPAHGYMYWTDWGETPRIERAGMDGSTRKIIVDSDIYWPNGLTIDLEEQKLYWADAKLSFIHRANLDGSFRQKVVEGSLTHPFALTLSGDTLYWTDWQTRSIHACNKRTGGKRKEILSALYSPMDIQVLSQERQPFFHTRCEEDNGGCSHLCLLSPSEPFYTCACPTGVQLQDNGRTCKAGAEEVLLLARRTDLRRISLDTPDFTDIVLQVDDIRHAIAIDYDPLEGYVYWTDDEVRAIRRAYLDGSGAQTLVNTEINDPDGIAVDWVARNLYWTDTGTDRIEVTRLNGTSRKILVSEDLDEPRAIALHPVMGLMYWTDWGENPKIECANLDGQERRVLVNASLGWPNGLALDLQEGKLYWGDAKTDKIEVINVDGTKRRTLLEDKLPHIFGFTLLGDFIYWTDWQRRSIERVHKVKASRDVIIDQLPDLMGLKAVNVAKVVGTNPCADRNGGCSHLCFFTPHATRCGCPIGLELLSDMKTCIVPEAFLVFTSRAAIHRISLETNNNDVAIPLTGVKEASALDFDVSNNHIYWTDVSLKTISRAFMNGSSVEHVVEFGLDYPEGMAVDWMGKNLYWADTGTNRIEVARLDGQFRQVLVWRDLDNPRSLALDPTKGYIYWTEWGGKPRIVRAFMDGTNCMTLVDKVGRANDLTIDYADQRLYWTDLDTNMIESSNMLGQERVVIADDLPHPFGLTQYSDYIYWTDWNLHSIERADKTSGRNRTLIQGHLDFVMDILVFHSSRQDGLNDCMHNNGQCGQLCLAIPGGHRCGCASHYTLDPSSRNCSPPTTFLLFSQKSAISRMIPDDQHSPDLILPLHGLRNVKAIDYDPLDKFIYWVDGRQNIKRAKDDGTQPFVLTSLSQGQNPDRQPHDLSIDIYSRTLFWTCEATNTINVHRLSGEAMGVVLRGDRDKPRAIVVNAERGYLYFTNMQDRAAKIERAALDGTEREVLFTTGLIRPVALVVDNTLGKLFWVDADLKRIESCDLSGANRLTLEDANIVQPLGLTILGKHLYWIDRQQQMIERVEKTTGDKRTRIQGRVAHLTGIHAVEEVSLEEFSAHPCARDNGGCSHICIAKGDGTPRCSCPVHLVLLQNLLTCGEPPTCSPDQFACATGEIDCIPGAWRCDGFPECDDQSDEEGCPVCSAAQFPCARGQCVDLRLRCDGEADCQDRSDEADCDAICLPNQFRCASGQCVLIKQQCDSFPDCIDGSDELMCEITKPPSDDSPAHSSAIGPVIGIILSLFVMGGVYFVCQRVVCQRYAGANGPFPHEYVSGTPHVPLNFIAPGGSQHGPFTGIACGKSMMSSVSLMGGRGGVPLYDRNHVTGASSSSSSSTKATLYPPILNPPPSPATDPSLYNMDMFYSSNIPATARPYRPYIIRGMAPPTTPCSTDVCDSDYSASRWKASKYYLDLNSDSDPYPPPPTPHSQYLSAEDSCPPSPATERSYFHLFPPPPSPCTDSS

Reduction in binding of ^125I-DKK1 to LRP5 (LRP5): small but significant reduction | Amount of the mature form of LRP6 on coexpression (LRP6 [1]): significantly increased | Effect of excess unlabeled competitor on increased DKK1 binding (LRP6 [2]): abolished
B1: Mesd: recombinant wild-type mouse Mesd, polyhistidine tail at the N-terminus, lacks the signal peptide, expressed in E. coli (protein)
chain: ADTPGEATPPPRKKKDIRDYNDADMARLLEQWEKDDDIEEGDLPEHKRPSAPIDFSKLDPGKPESILKMTKKGKTLMMFVTVSGNPTEKETEEITSLWQGSLFNANYDVQRFIVGSDRAIFMLRDGSYAWEIKDFLVSQDRCAEVTLEGQMYPGKGGGSKEKNKTKPEKAKKKEGDRKPRASKEDNRAGSRREDL
modifications: left off: small tags and cut ends
notes: recombinant wild-type mouse Mesd, polyhistidine tail at the N-terminus, lacks the signal peptide, expressed in E. coli
Change in cytosolic β-catenin levels (cytosolic β-catenin): no significant change
